These results are taken from PMC5481319.

The target in the series is T1, (FNRD154A)2-His6 D154A (Escherichia coli) (UniProt P0A9E5).
T1 sequence: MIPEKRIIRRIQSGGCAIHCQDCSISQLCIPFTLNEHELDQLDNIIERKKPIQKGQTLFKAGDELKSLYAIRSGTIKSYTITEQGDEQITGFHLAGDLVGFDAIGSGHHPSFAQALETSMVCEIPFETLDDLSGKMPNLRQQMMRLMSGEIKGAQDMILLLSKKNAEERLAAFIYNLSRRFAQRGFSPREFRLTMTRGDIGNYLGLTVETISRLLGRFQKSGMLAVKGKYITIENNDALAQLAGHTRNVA
Put plainly: EMSA. Particulars: 20 mM Tris, 50 mM NaCl, 40 mM EDTA ([…], pH 6.8, 30 min at 37 C. (A gel shift assay detects complexes by their altered migration in electrophoresis.)

In the case of “TCAGGCAGATAAACCCGTTCTTTGGCCTTGCCACTTAAAGTGCCAAAATCAATCTCCGTACTGATTTTCTCCGGTGTAAAAGAAAGCCCAGTATCAGAAGCCAGTGCAGCAAACGCTACAGGAGCTGAGAGTGCAGTAGCAAGAATCTTTAAGTACATAGACAAGTTAACTCCATTCCACTCGTTTGTTTTTGATAAATATTTTTTTATTTACTCGTAGTAGTCAACTGAAAAATGCTGTTTTGTTTAACGTTTGTTT (double strand) [ompT plasmid promoter PCR product]”, the binding result is on record as “binds”.
